This note sets out measurements from patent US7935343B2.

The target in assay [1] is human IL-13 (human).
Assay [2] concerns the target human IL-13 (human). The source holds these as a separate data set.
Assay [3] has as its target native human IL-13 released from HDLM-2 cells (human).
The target of assay [4] is human IL-13 variant (Q130R) with carboxyl terminus affinity tag (baculovirus expression) (human).
The target of assay [5] is non-human primate IL-13 (rhesus and cynomolgus, identical) with carboxyl terminus affinity tag (cynomolgus and rhesus monkey).
non-human primate IL-13 (rhesus and cynomolgus, identical) with carboxyl terminus affinity tag (cynomolgus and rhesus monkey), sequence (chain, as listed by the source): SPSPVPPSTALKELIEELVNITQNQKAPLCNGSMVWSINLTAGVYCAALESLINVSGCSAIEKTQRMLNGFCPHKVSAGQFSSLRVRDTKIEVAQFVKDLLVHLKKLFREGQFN

human IL-13 variant (Q130R) with carboxyl terminus affinity tag (baculovirus expression) (human), sequence (chain, as listed by the source Q130R Q130R): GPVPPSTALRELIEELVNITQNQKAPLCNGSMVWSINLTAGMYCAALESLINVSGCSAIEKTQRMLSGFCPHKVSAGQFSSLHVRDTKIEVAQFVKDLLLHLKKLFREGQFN

On to “B-B13 (mouse IgG1, Euroclone) (antibody)”, for which the IC50, TF-1 proliferation in assay [1] was 1.02 nM. Further, the IC50, eotaxin release from NHLF in assay [2] came to 0.219 nM. Besides, in assay [3], the IC50, HDLM-2 cell proliferation is 16.7 nM.
Consider BAK502G9 IgG4 (antibody), for which the IC50, TF-1 cell proliferation worked out at 1.9 nM in assay [4] and 2 nM in assay [5].
Regarding “JES10-5A2 (rat IgG1, Biosource) (antibody)”, the IC50, TF-1 proliferation in assay [1] was 0.471 nM. The substance further returned an IC50, eotaxin release from NHLF in assay [2] of 0.623 nM. Further, in assay [3], the IC50, HDLM-2 cell proliferation was 10.7 nM.
